Measurements published in patent US20120114595A1 (OTSUKA CHEMICAL, published 2012).

How the values were obtained:
[1] = molecular target: T1, AILIM ligand B7-H2/Fc Chimera (R&D Systems, Inc.), biotinylated (UniProt O75144 19-258, biotinylated using EZ-Link NHS-PEO Solid Phase Biotinylation Kit (sites not given)); assay: ELISA, coated synthetic AILIM (lot a, 0.06684 nmol/ml) against coated ICOS/Fc as reference, biotinylated B7-H2/Fc
T1 construct: Bought reagent; also called B7RP-1; Fc part of the bought chimera not given
T1 sequence (looked up): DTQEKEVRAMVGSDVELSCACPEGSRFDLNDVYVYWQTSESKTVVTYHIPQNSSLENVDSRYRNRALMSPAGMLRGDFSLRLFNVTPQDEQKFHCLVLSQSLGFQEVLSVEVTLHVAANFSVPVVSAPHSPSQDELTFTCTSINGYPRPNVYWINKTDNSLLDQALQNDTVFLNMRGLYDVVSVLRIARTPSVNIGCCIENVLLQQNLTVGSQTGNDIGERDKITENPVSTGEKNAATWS
Description: (§1) Dilution series of each evaluation sample solution of synthetic AILIM were added to an ELISA plate, and each well was coated therewith by reaction at 37° C. for 2 hours. After the reaction, the sample solution was discarded, D-PBS (−) containing 0.4% bovine serum albumin and 0.05% Tween 20 (blocking solution) was added at a concentration of 150 μL/well, and each well was blocked by reaction at 37° C. for 1 hour. The plate thus blocked was washed 3 times with D-PBS (−) containing 0.1% bovine serum albumin and 0.05% Tween 20 (washing buffer). An AILIM ligand B7-H2/Fc Chimera (R&D Systems, Inc.) biotinylated using EZ-Link NHS-PEO Solid Phase Biotinylation Kit was added at a concentration of 200 ng/50 μL/well and reacted at 37° C. for 1.5 hours. Unreacted ligand molecules were removed by washing 3 times with the washing buffer.
(§2) Subsequently, streptavidin-labeled horseradish peroxidase (BD-Pharmingen) diluted 1000-fold with D-PBS (−) containing 0.1% bovine serum albumin was added at a concentration of 100 μL/well and reacted at 37° C. for 1 hour. After the reaction, the plate was washed with 3 times with the washing buffer to remove unreacted streptavidin-labeled horseradish peroxidase. […] The reaction was terminated by the addition of 1% SDS at a concentration of 100 μL/well, and the OD value at 405 nm was measured using a plate reader (VersaMax, Molecular Devices, LLC). […]

[2] = molecular target: T1, AILIM ligand B7-H2/Fc Chimera (R&D …); assay: ELISA, coated synthetic AILIM (lot a, 0.004178 nmol/ml) against coated ICOS/Fc as reference, biotinylated B7-H2/Fc
Description: as §1, §2

[3] = molecular target: T1, AILIM ligand B7-H2/Fc Chimera (R&D …); assay: ELISA, coated synthetic AILIM (lot a, 0.01671 nmol/ml) against coated ICOS/Fc as reference, biotinylated B7-H2/Fc
Description: as §1, §2

[4] = molecular target: T1, AILIM ligand B7-H2/Fc Chimera (R&D …); assay: ELISA, coated synthetic AILIM against coated ICOS/Fc as reference, biotinylated B7-H2/Fc
Description: as §1, §2

B1: oligosaccharide chain-added extracellular domain of AILIM (synthetic AILIM), 120-amino acid extracellular domain of human AILIM with an asialo-nonasaccharide … (receptor)
chain: EINGSANYEMFIFHNGGVQILCKYPDIVQQFKMQLLKGGQILCDLTKTKGSGNTVSIKSLKFCHSQLSNNSVSFFLYNLDHSHANYYFCNLSIFDPPPFKVTLTGGYLHIYESQLCCQLK
modifications: asialo-nonasaccharide chain on Asn at position 69 (residue 89 by counting from the N-terminal Met of AILIM); no oligosaccharide chain at positions 3 and 90
notes: Made by chemical synthesis (Fmoc solid phase, KCL/NCL ligation), Acm groups removed, folded by dialysis in two dialysis tubes (lot a and lot b); Coated on the ELISA plate in the assays; also called synthetic AILIM lot. a; synthetic AILIM lot. b
- B/A (ICOS/Fc concentration for the same absorbance over synthetic AILIM concentration) [1]: 11.4 fold
- B/A (ICOS/Fc concentration for the same absorbance over synthetic AILIM concentration) [2]: 8.88 fold
- B/A (ICOS/Fc concentration for the same absorbance over synthetic AILIM concentration) [3]: 6.05 fold
- fold ICOS/Fc concentration required for equivalent ligand binding activity [4]: ~10 fold
